According to patent publication US20220062371:

Tests used:
[1] = tested on: Compound 3, AF-Arg-Phe-Lys(PEG4-Mal-Cys-Ac)-OH
[2] = tested on: Compound 29, Ac-Cys-Mal-PEG4-[Phe-Lys-Lys(Mal-DM1)-Phe]2-OH
[3] = tested on: Compound 30, Ac-Cys-Mal-PEG4-Phe-Arg-Lys(Mal-DM1)-Arg-Lys(AF)-Phe-OH
[4] = tested on: Compound 19, AF-Cit-Lys(PEG4-Mal-Cys-Ac)-Phe-OH
[5] = tested on: Compound 1, AF-Arg-Lys(PEG4-Mal-Cys-Ac)-Phe-OH
[6] = tested on: Compound 10, Arg-PEG4-Phe-Arg-Dab(CO-CPT)-Phe-OH
[7] = tested on: Compound 13, Ac-Cys-Mal-PEG4-Phe-Lys-Lys(AF)-Phe-OH
[8] = tested on: Compound 18, Arg-PEG4-[Phe-Arg-Glu(Sar-OCPT)-Arg]2-OH
[9] = tested on: Compound 12, Ac-Cys-Mal-PEG4-Phe-Lys-Lys(Mal-DM1)-Phe-OH
[10] = tested on: Compound 15, Arg-PEG4-Phe-Arg-Glu(Sar-OCPT)-Arg-OH
[11] = tested on: Compound 5, DM1-Mal-Phe-Lys-Lys(PEG4-Mal-Cys-Ac)-Phe-OH
[12] = tested on: Compound 16, Arg-PEG4-Phe-Arg-Glu(Sar-OCPT)-Arg-Phe-Arg-OH
[13] = tested on: Compound 11, Arg-PEG4-Phe-Arg-Ser(CO-CPT)-Phe-OH
[14] = tested on: Compound 28, Ac-Cys-Mal-PEG4-Phe-Lys-Lys(Mal-DM1)-Phe-Phe-Lys-OH
[15] = tested on: Compound 17, Arg-PEG4-Phe-Arg-[Glu(Sar-OCPT)-Phe]2-OH
[16] = tested on: Compound 22, DM1-Mcc-Phe-Cit-Lys(PEG5-Ma-Cys-Ac)-Tyr-OH
[17] = tested on: Compound 6, DM1-Mal-Phe-Cit-Lys(PEG4-Mal-Cys-Ac)-Phe-OH
[18] = tested on: Compound 9, Arg-PEG4-Phe-Arg-Dap(CO-CPT)-Phe-OH
[19] = tested on: Compound 23, DM1-Mcc-Cit-Lys(PEG5-Ma-Cys-Ac)-Tyr-OH
[20] = tested on: Compound 31, AF-Cit-Lys(Mal-DM1)-Phe-Lys(PEG4-Mal-Cys-Ac)-Phe-OH
[21] = tested on: Compound 7, DM1-Mal-Phe-Cit-Phe-Lys(PEG4-Mal-Cys-Ac)-OH
[22] = tested on: Compound 8, Arg-PEG4-Phe-Arg-Glu(Sar-OCPT)-Phe-OH
[23] = tested on: Compound 27, Ac-Cys-Ma-PEG5-Phe-Cit-Lys(Mcc-DM1)-Tyr-OH
[24] = tested on: Compound 32, Ac-Cys-Mal-[PEG5-Lys(AF-Cit-Lys(Y)-Phe-OH)]2-Gly-NH2

Substance Recombinant human Cathepsin B has a T1/2 Compound (min), Cat B-induced cleavage [1] of 1.4 min, a T1/2 Compound (min), Cat B-induced cleavage [2] of 2.4 min and a T1/2 Compound (min), Cat B-induced cleavage [3] of 1.1 min. The T1/2 Compound (min), Cat B-induced cleavage [4] was 1.1 min, the T1/2 Compound (min), Cat B-induced cleavage [5] was 1.5 min and the T1/2 Compound (min), Cat B-induced cleavage [6] was 0.9 min. The T1/2 Compound (min), Cat B-induced cleavage [7] was 1.6 min, the “Cat B-induced cleavage (in vitro enzymatic cleavage assay)” value [8] was “Cat B-induced cleavage of compound 18 rapidly released the C-terminal dipeptide-drug unit H-Glu(Sar-OCPT)-Arg-OH and compound 16 as a first intermediate” and the T1/2 Compound (min), Cat B-induced cleavage [9] was 1.5 min. For the same substance, the “Cat B-induced cleavage (in vitro enzymatic cleavage assay)” value [10] was “Cat B-induced cleavage of compound 15 releases a second C-terminal dipeptide-drug unit H-Glu(Sar-OCPT)-Arg-OH”, the T1/2 Compound (min), Cat B-induced cleavage [11] was 0.6 min and the “Cat B-induced cleavage (in vitro enzymatic cleavage assay)” value [12] was “compound 16 as a first intermediate, which is in turn rapidly cleaved via exo-Cat B mechanism to release compound 15 as a second intermediate”. The T1/2 Compound (min), Cat B-induced cleavage [13] was 2.2 min, the T1/2 Compound (min), Cat B-induced cleavage [14] was 0.3 min and the “Cat B-induced cleavage (in vitro enzymatic cleavage assay)” value [15] was “Cat B-induced cleavage of compound 17 rapidly released C-terminal dipeptide-drug unit Glu(Sar-OCPT)-Phe-OH and compound 8 as an intermediate”. It also gave a T1/2 Compound (min), Cat B-induced cleavage [16] of 0.06 min, a T1/2 Compound (min), Cat B-induced cleavage [17] of 0.3 min and a T1/2 Compound (min), Cat B-induced cleavage [18] of 4.5 min. The T1/2 Compound (min), Cat B-induced cleavage [19] was 0.0004 min, the T1/2 Compound (min), Cat B-induced cleavage [20] was 1.08 min and the T1/2 Compound (min), Cat B-induced cleavage [21] was 1.2 min. For the same substance, the “Cat B-induced cleavage (in vitro enzymatic cleavage assay)” value [22] was “compound 8 was rapidly cleaved to release the C-terminal dipeptide-drug unit H-Glu(Sar-OCPT)-Phe-OH”, the T1/2 Compound (min), Cat B-induced cleavage [22] was 2.2 min and the T1/2 Compound (min), Cat B-induced cleavage [23] was 0.06 min. The T1/2 Compound (min), Cat B-induced cleavage [24] was 0.98 min.
